In patent US20040043401A1:

Molecular target: human prostate-specific membrane antigen (PSMA) (human) (UniProt Q04609)
Experiment: cell-based or functional assay
Conditions: for IL-2 content normalized for gene transfer efficiency, transduced PBLs on NIH3T3 feeder expressing PSMA + B7.1: scale: pg/ml divided by percentage transduced cells

human prostate-specific membrane antigen (PSMA) (human), sequence (Q04609 whole entry): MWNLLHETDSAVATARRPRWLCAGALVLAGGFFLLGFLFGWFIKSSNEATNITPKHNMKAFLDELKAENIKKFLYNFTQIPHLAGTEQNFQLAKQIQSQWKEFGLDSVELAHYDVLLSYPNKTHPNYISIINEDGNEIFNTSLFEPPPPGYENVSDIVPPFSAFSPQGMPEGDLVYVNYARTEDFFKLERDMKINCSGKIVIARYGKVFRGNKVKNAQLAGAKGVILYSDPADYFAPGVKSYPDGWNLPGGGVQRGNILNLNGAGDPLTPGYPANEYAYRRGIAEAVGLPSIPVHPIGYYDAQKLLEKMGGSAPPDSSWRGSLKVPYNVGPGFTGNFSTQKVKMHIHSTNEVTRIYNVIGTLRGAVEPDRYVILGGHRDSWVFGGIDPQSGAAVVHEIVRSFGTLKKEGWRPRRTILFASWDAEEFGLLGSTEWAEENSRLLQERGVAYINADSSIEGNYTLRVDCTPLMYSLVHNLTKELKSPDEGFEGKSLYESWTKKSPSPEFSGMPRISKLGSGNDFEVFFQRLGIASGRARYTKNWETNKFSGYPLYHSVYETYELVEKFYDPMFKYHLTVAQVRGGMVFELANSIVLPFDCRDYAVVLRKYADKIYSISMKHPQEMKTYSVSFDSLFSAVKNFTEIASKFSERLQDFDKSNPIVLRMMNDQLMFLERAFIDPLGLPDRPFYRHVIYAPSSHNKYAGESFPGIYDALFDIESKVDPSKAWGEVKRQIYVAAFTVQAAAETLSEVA
P28 fusion receptor (J591 scFv fused to human CD28), sequence (P10747 114-220): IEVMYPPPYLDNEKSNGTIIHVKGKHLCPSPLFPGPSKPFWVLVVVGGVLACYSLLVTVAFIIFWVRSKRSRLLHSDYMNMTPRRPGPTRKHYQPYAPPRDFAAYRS

IL-2 concentration in supernatant (ELISA, 24 h), transduced PBLs on NIH3T3 feeder expressing PSMA	IL-2 concentration in supernatant (ELISA, 24 h), transduced PBLs on NIH3T3 feeder expressing PSMA + B7.1	IL-2 content normalized for gene transfer efficiency, transduced PBLs on NIH3T3 feeder expressing PSMA + B7.1	Substance
< 50 pg/mL	< 50 pg/mL	–	P28 fusion receptor (J591 scFv fused to human CD28) (from UniProt P10747 114-220)
< 50 pg/mL	164000 pg/mL	3280	Pz1 fusion receptor (J591 scFv - human CD8 alpha hinge and transmembrane - intracellular domain of human TCR zeta) (from UniProt P01732 137-209)
< 50 pg/mL	29700 pg/mL	958	Pz28 fusion receptor (Pz1 with the 41 amino acid intracellular domain of human CD28 at its C-terminus) (from UniProt P01732 137-209)
